“And” between values parts separate entries of the source, which are not always exact repeats. Identical values can stand only once.

The record followed here is patent US20160208004A1.

Some targets named below: human IL-25 (human) (UniProt Q9H293); human IL-17RA (human) (UniProt Q96F46); human IL-17RB (human) (UniProt Q9NRM6).
Test in all cases: cell-based or functional assay

Chain of human IL-17RB (human) (Q9NRM6 18-502): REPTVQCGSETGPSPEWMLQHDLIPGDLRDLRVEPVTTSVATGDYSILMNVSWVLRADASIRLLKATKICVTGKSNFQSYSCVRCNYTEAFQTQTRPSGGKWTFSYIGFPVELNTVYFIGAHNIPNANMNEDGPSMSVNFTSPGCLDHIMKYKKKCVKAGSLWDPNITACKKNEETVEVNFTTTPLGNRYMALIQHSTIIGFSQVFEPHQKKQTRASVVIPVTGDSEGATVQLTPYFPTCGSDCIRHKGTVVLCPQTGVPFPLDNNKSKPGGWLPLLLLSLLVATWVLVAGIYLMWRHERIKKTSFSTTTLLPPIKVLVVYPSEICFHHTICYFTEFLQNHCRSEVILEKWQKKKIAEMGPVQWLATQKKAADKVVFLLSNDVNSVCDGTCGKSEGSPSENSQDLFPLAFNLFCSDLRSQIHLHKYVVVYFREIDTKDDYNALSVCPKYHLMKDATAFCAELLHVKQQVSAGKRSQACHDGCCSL
Chain of human IL-25 (human) (Q9H293 33-177 limits assumed): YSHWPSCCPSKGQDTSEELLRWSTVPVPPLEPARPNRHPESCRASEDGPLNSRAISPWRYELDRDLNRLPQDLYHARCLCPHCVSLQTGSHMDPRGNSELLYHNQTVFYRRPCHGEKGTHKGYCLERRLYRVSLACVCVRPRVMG

As for “HuIL-17RB: HIS (extracellular region of human IL-17RB fused to poly HIS) (from UniProt Q9NRM6 18-292) (receptor)”, the % Inhibition of IL-5 production, TSLP treated human PBMC + IL-2 + IL-25; inhibitor 10 micrograms/mL with human IL-25 (human) stood at 67%. In the case of “MAB1771: anti-HuIL-17RA MuIgG2b (R&D Systems) (antibody)”, the % Inhibition of IL-5 production, TSLP treated human PBMC + IL-2 + IL-25; inhibitor 10 micrograms/mL with human IL-17RA (human) was 24% and 33%. In the case of “MAB1207: anti-HuIL-17RB MuIgG2b (R&D Systems) (antibody)”, the % Inhibition of IL-5 production, TSLP treated human PBMC + IL-2 + IL-25; inhibitor 10 micrograms/mL with human IL-17RB (human) is 13%.
